Experimental data taken from PMC4942675 (Molecular Cell, 2016).
Where a chain is given by its changes, count along the chain named. Where two headings read alike, the source gives them in different places. Values belong to the binder of their own block, whether it stands above or below them.

Experiments:
[1] = molecular target: T1, Rrp43 (subunit of Exo10 in the crystal structure) (S. cerevisiae, UniProt P25359); test: crystal structure
T1 sequence: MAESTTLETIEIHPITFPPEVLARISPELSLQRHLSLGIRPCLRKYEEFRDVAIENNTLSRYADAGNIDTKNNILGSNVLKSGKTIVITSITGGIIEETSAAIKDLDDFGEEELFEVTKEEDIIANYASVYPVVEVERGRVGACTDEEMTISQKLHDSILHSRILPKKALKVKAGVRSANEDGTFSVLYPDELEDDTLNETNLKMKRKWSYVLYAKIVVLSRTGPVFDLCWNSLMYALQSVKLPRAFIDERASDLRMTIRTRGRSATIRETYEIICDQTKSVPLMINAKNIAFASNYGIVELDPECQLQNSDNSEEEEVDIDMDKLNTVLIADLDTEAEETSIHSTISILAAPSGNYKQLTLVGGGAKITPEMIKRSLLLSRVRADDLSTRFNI

[2] = molecular target: T2, S. cerevisiae Exo9 (nine-subunit exosome core, no Rrp44 subunit) (S. cerevisiae, UniProt P46948;Q05636;P53256;P25359;P48240;Q12277;P38792;Q08285;P53859); test: MST
[3] = molecular target: T2, S. cerevisiae Exo9 (nine-subunit …); test: pull-down
[4] = molecular target: T2, S. cerevisiae Exo9 (nine-subunit …); test: pull-down; remark: listed apart in the source

binding result [1]: binds
B1: Mtr3 (subunit of Exo10 in the crystal structure) (natural protein)
chain: MNVQDRRRLLGPAAAKPMAFSNTTTHVPEKKSTDLTPKGNESEQELSLHTGFIENCNGSALVEARSLGHQTSLITAVYGPRSIRGSFTSQGTISIQLKNGLLEKYNTNELKEVSSFLMGIFNSVVNLSRYPKSGIDIFVYLTYDKDLTNNPQDDDSQSKMMSSQISSLIPHCITSITLALADAGIELVDMAGAGEANGTVVSFIKNGEEIVGFWKDDGDDEDLLECLDRCKEQYNRYRDLMISCLMNQET

Kd [2]: 50 nM
B2: GFP-Ski7_(exomut-1) (Trp125Asp, Ile128Asp) (domain or fragment)
chain: DDKLNLEESDKADKEMNHYCFLKNDPCINQTDDFAFTNFIIKDKKNSLSTSIPLSSQNSSFLSLKKHNNELLGIFVPCNLPKTTRKVAIENFNRPSPDDIIQSAQLNAFN

binding result [3]: binds
B3: GFP-Ski7_(exomut-2) (Phe149Asp, Phe151Asp, Phe154Asp) (domain or fragment)
chain: B2 chain with D10W, D13I, F34D, F36D, F39D

Kd [2]: ~5 nM
B4: GFP-tagged Ski7exo (domain or fragment)
chain: B2 chain with D10W, D13I

binding result [3]: binds
B5: GFP-Ski7_(exomut-3) (Ile189Asp, Phe190Asp) (domain or fragment)
chain: B2 chain with D10W, D13I, I74D, F75D

Kd [2]: ~10 nM
B6: GFP-tagged Rrp6exo (GFP-Sumo-Rrp6C, Rrp6 residues 518-693) (domain or fragment)
chain: EATPIPSSETKADGILLETISVPQIRDVMERFSVLCNSNISKSRAKPVTNSSILLGKILPREEHDIAYSKDGLPNKVKTEDIRIRAQNFKSALANLEDIIFEIEKPLVVPVKLEEIKTVDPASAPNHSPEIDNLDDLVVLKKKNIQKKQPAKEKGVTEKDAVDYSKIPNILSNKPG

binding result [4]: binds
B7: Ski7 residues 116-235 (Exo9-interacting domain) (domain or fragment)
chain: DDKLNLEESWKAIKEMNHYCFLKNDPCINQTDDFAFTNFIIKDKKNSLSTSIPLSSQNSSFLSLKKHNNELLGIFVPCNLPKTTRKVAIENFNRPSPDDIIQSAQLNAFNEKLENLNIKS
